Results on six molecules are retold here after US20200079833A1 (AstraZeneca / MedImmune, published 2020).

Assay in all cases: cell-based or functional assay
In one assay the target is GLP-1 receptor (GLP-1R) (human, UniProt P43220 24-463).
The target in the next assay is glucagon receptor (GCGR) (human, UniProt P47871 26-477).
Assay [1] concerns the target T1, glucose-dependent insulinotropic peptide (gastric inhibitory polypeptide) receptor (GIPR) (human, UniProt P48546 22-466).
T1 sequence (looked up): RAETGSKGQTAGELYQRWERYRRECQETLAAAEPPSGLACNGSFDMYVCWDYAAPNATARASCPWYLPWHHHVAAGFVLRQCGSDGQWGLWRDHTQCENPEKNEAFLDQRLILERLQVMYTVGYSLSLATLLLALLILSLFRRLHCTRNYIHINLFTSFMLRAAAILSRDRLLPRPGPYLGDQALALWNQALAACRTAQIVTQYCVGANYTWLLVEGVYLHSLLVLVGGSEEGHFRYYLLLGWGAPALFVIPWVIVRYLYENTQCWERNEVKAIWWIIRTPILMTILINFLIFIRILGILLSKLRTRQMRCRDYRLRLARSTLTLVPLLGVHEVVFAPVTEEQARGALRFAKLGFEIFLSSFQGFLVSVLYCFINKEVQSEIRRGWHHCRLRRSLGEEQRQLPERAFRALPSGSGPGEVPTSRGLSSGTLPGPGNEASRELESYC

Starred links: 1 amine or outer side, 2 acyl side, 3 side chain; linkers in the order of their positions; H or OH if unused. Non-standard residues stand in square brackets, D forms with d. Groups on a side chain read outwards from the residue. Primed or numbered codes have the meaning given here. No end group written: not given here. *: point of attachment. γGlu = O=C(O)[C@H](CCC(=O)[*:2])N[*:1]; Stearoyl = CCCCCCCCCCCCCCCCCC(=O)*; αMeF = C[C@](N)(Cc1ccccc1)C(=O)O; αMeK = C[C@](N)(CCCCN)C(=O)O; αMeS = C[C@](N)(CO)C(=O)O; PEG2′ = not defined here; Aib = CC(C)(N)C(=O)O; Ahx = NCCCCCC(=O)O

Sequence of glucagon receptor (GCGR) (P47871 26-477): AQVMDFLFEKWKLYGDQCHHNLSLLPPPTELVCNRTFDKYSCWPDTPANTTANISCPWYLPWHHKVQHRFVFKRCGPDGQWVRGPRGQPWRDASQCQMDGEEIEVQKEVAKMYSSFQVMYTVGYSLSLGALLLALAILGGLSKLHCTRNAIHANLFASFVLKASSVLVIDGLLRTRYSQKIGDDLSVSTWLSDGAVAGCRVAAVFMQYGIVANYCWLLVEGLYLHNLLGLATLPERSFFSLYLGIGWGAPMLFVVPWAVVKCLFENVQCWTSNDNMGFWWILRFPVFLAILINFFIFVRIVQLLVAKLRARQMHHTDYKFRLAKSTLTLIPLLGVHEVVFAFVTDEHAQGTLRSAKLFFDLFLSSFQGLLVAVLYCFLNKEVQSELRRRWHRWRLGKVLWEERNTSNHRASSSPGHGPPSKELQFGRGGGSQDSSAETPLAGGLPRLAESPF

B1: SEQ ID NO 161 (peptide)
peptide: H[Aib]EGS[αMeF]TSDV[αMeS]S[αMeF]LEGEAAK([PEG2′-Stearoyl])E[αMeF]IA[αMeF]VV[αMeK]GG-NH2
With B1, in the assay with GLP-1 receptor (GLP-1R), the “Primary assay EC50 (cAMP), GLP-1R n1” value is 0.16 nM; the “Primary assay EC50 (cAMP), GLP-1R n2” value turned out to be 0.062 nM; the “Primary assay EC50 (cAMP), Mean pM GLP-1R” value was found to be 112 pM. Further, in the assay with glucagon receptor (GCGR), the “Primary assay EC50 (cAMP), Gluc-R, first run” value came to 27 nM and the “Primary assay EC50 (cAMP), Gluc-R, second run” value is 27 nM. Further, in assay [1], the “Primary assay EC50 (cAMP), GIP-R, first run” value was 27 nM and the “Primary assay EC50 (cAMP), GIP-R, second run” value came to 27 nM.

B2: SEQ ID NO 159 (peptide)
peptide: H[Aib]EGS[αMeF]TSDV[αMeS]S[αMeF]LEGEAAK([Ahx-Ahx-Stearoyl])E[αMeF]IA[αMeF]VV[αMeK]GG-NH2
modifications: N-terminus assumed
SMILES: CCCCCCCCCCCCCCCCCC(=O)NCCCCCC(=O)NCCCCCC(=O)NCCCC[C@H](NC(=O)[C@H](C)NC(=O)[C@H](C)NC(=O)[C@H](CCC(=O)O)NC(=O)CNC(=O)[C@H](CCC(=O)O)NC(=O)[C@H](CC(C)C)NC(=O)[C@](C)(Cc1ccccc1)NC(=O)[C@H](CO)NC(=O)[C@](C)(CO)NC(=O)[C@@H](NC(=O)[C@H](CC(=O)O)NC(=O)[C@H](CO)NC(=O)[C@@H](NC(=O)[C@](C)(Cc1ccccc1)NC(=O)[C@H](CO)NC(=O)CNC(=O)[C@H](CCC(=O)O)NC(=O)C(C)(C)NC(=O)[C@@H](N)Cc1c[nH]cn1)[C@@H](C)O)C(C)C)C(=O)N[C@@H](CCC(=O)O)C(=O)N[C@@](C)(Cc1ccccc1)C(=O)N[C@H](C(=O)N[C@@H](C)C(=O)N[C@@](C)(Cc1ccccc1)C(=O)N[C@H](C(=O)N[C@H](C(=O)N[C@@](C)(CCCCN)C(=O)NCC(=O)NCC(N)=O)C(C)C)C(C)C)[C@@H](C)CC
Regarding B2, in the assay with GLP-1 receptor (GLP-1R), the “Primary assay EC50 (cAMP), GLP-1R n1” value came to 0.28 nM; the “Primary assay EC50 (cAMP), GLP-1R n2” value amounted to 0.23 nM; the “Primary assay EC50 (cAMP), Mean pM GLP-1R” value was determined as 254 pM. Moreover, in the assay with glucagon receptor (GCGR), the “Primary assay EC50 (cAMP), Gluc-R, first run” value was determined as 27 nM and the “Primary assay EC50 (cAMP), Gluc-R, second run” value was found to be 27 nM. Also, in assay [1], the “Primary assay EC50 (cAMP), GIP-R, first run” value came to 27 nM and the “Primary assay EC50 (cAMP), GIP-R, second run” value amounted to 27 nM.

B3: SEQ ID NO 158 (peptide)
peptide: H[Aib]EGS[αMeF]TSDV[αMeS]S[αMeF]LEGEAAK([Ahx-Stearoyl])E[αMeF]IA[αMeF]VV[αMeK]GG-NH2
modifications: N-terminus assumed
SMILES: CCCCCCCCCCCCCCCCCC(=O)NCCCCCC(=O)NCCCC[C@H](NC(=O)[C@H](C)NC(=O)[C@H](C)NC(=O)[C@H](CCC(=O)O)NC(=O)CNC(=O)[C@H](CCC(=O)O)NC(=O)[C@H](CC(C)C)NC(=O)[C@](C)(Cc1ccccc1)NC(=O)[C@H](CO)NC(=O)[C@](C)(CO)NC(=O)[C@@H](NC(=O)[C@H](CC(=O)O)NC(=O)[C@H](CO)NC(=O)[C@@H](NC(=O)[C@](C)(Cc1ccccc1)NC(=O)[C@H](CO)NC(=O)CNC(=O)[C@H](CCC(=O)O)NC(=O)C(C)(C)NC(=O)[C@@H](N)Cc1c[nH]cn1)[C@@H](C)O)C(C)C)C(=O)N[C@@H](CCC(=O)O)C(=O)N[C@@](C)(Cc1ccccc1)C(=O)N[C@H](C(=O)N[C@@H](C)C(=O)N[C@@](C)(Cc1ccccc1)C(=O)N[C@H](C(=O)N[C@H](C(=O)N[C@@](C)(CCCCN)C(=O)NCC(=O)NCC(N)=O)C(C)C)C(C)C)[C@@H](C)CC
For the molecule B3, in the assay with GLP-1 receptor (GLP-1R), the “Primary assay EC50 (cAMP), GLP-1R n1” value worked out at 0.14 nM; the “Primary assay EC50 (cAMP), GLP-1R n2” value was found to be 0.16 nM; the “Primary assay EC50 (cAMP), Mean pM GLP-1R” value came to 148 pM. Besides, in the assay with glucagon receptor (GCGR), the “Primary assay EC50 (cAMP), Gluc-R, first run” value was determined as 28 nM and the “Primary assay EC50 (cAMP), Gluc-R, second run” value was 28 nM. In assay [1], the “Primary assay EC50 (cAMP), GIP-R, first run” value worked out at 28 nM and the “Primary assay EC50 (cAMP), GIP-R, second run” value is 28 nM.

B4: SEQ ID NO 157 (peptide)
peptide: H[Aib]EGS[αMeF]TSDV[αMeS]S[αMeF]LEGEAAK([γGlu-γGlu-γGlu-Stearoyl])E[αMeF]IA[αMeF]VV[αMeK]GG-NH2
modifications: N-terminus assumed
SMILES: CCCCCCCCCCCCCCCCCC(=O)N[C@@H](CCC(=O)N[C@@H](CCC(=O)N[C@@H](CCC(=O)NCCCC[C@H](NC(=O)[C@H](C)NC(=O)[C@H](C)NC(=O)[C@H](CCC(=O)O)NC(=O)CNC(=O)[C@H](CCC(=O)O)NC(=O)[C@H](CC(C)C)NC(=O)[C@](C)(Cc1ccccc1)NC(=O)[C@H](CO)NC(=O)[C@](C)(CO)NC(=O)[C@@H](NC(=O)[C@H](CC(=O)O)NC(=O)[C@H](CO)NC(=O)[C@@H](NC(=O)[C@](C)(Cc1ccccc1)NC(=O)[C@H](CO)NC(=O)CNC(=O)[C@H](CCC(=O)O)NC(=O)C(C)(C)NC(=O)[C@@H](N)Cc1c[nH]cn1)[C@@H](C)O)C(C)C)C(=O)N[C@@H](CCC(=O)O)C(=O)N[C@@](C)(Cc1ccccc1)C(=O)N[C@H](C(=O)N[C@@H](C)C(=O)N[C@@](C)(Cc1ccccc1)C(=O)N[C@H](C(=O)N[C@H](C(=O)N[C@@](C)(CCCCN)C(=O)NCC(=O)NCC(N)=O)C(C)C)C(C)C)[C@@H](C)CC)C(=O)O)C(=O)O)C(=O)O
Consider B4, for which, in the assay with GLP-1 receptor (GLP-1R), the “Primary assay EC50 (cAMP), GLP-1R n1” value is 0.24 nM; the “Primary assay EC50 (cAMP), GLP-1R n2” value was determined as 0.22 nM; the “Primary assay EC50 (cAMP), Mean pM GLP-1R” value worked out at 227 pM. Besides, in the assay with glucagon receptor (GCGR), the “Primary assay EC50 (cAMP), Gluc-R, first run” value worked out at 26 nM and the “Primary assay EC50 (cAMP), Gluc-R, second run” value was found to be 26 nM. Besides, in assay [1], the “Primary assay EC50 (cAMP), GIP-R, first run” value worked out at 26 nM and the “Primary assay EC50 (cAMP), GIP-R, second run” value came to 26 nM.

B5: SEQ ID NO 160 (peptide)
peptide: H[Aib]EGS[αMeF]TSDV[αMeS]S[αMeF]LEGEAAK([Ahx-Ahx-Ahx-Stearoyl])E[αMeF]IA[αMeF]VV[αMeK]GG-NH2
modifications: N-terminus assumed
SMILES: CCCCCCCCCCCCCCCCCC(=O)NCCCCCC(=O)NCCCCCC(=O)NCCCCCC(=O)NCCCC[C@H](NC(=O)[C@H](C)NC(=O)[C@H](C)NC(=O)[C@H](CCC(=O)O)NC(=O)CNC(=O)[C@H](CCC(=O)O)NC(=O)[C@H](CC(C)C)NC(=O)[C@](C)(Cc1ccccc1)NC(=O)[C@H](CO)NC(=O)[C@](C)(CO)NC(=O)[C@@H](NC(=O)[C@H](CC(=O)O)NC(=O)[C@H](CO)NC(=O)[C@@H](NC(=O)[C@](C)(Cc1ccccc1)NC(=O)[C@H](CO)NC(=O)CNC(=O)[C@H](CCC(=O)O)NC(=O)C(C)(C)NC(=O)[C@@H](N)Cc1c[nH]cn1)[C@@H](C)O)C(C)C)C(=O)N[C@@H](CCC(=O)O)C(=O)N[C@@](C)(Cc1ccccc1)C(=O)N[C@H](C(=O)N[C@@H](C)C(=O)N[C@@](C)(Cc1ccccc1)C(=O)N[C@H](C(=O)N[C@H](C(=O)N[C@@](C)(CCCCN)C(=O)NCC(=O)NCC(N)=O)C(C)C)C(C)C)[C@@H](C)CC
Regarding B5, in the assay with GLP-1 receptor (GLP-1R), the “Primary assay EC50 (cAMP), GLP-1R n1” value came out at 0.39 nM; the “Primary assay EC50 (cAMP), GLP-1R n2” value was found to be 0.32 nM; the “Primary assay EC50 (cAMP), Mean pM GLP-1R” value was found to be 350 pM. In addition, in the assay with glucagon receptor (GCGR), the “Primary assay EC50 (cAMP), Gluc-R, first run” value amounted to 26 nM and the “Primary assay EC50 (cAMP), Gluc-R, second run” value was 26 nM. In assay [1], the “Primary assay EC50 (cAMP), GIP-R, first run” value was 26 nM and the “Primary assay EC50 (cAMP), GIP-R, second run” value was found to be 26 nM.

B6: SEQ ID NO 162 (peptide)
peptide: H[Aib]EGS[αMeF]TSDV[αMeS]S[αMeF]LEGEAAK([PEG2′-PEG2′-Stearoyl])E[αMeF]IA[αMeF]VV[αMeK]GG-NH2
On to B6, for which, in the assay with GLP-1 receptor (GLP-1R), the “Primary assay EC50 (cAMP), GLP-1R n1” value was determined as 0.053 nM; the “Primary assay EC50 (cAMP), GLP-1R n2” value was determined as 0.055 nM; the “Primary assay EC50 (cAMP), Mean pM GLP-1R” value came out at 54 pM. In the assay with glucagon receptor (GCGR), the “Primary assay EC50 (cAMP), Gluc-R, first run” value worked out at 26 nM and the “Primary assay EC50 (cAMP), Gluc-R, second run” value amounted to 26 nM. In assay [1], the “Primary assay EC50 (cAMP), GIP-R, first run” value was determined as 26 nM and the “Primary assay EC50 (cAMP), GIP-R, second run” value was 26 nM.
